{
  "source": "paper PMC11237949",
  "about": "“Structure and dynamics of the staphylococcal pyridoxal 5-phosphate synthase complex reveal transient interactions at the enzyme interface” (The Journal of Biological Chemistry, 2024)",
  "molecules": {"B1": {"name": "Staphylococcus aureus Pdx1 (PLP synthase subunit) (enzyme, S. aureus, UniProt A5IQ72 1-295, looked up)", "chain": "MSKIIGSDRVKRGMAEMQKGGVIMDVVNAEQARIAEEAGAVAVMALERVPSDIRAAGGVARMANPKIVEEVMNAVSIPVMAKARIGHITEARVLEAMGVDYIDESEVLTPADEEYHLRKDQFTVPFVCGCRNLGEAARRIGEGAAMLRTKGEPGTGNIVEAVRHMRQVNSEVSRLTVMNDDEIMTFAKDIGAPYEILKQIKDNGRLPVVNFAAGGVATPQDAALMMELGADGVFVGSGIFKSEDPEKFAKAIVQATTHYQDYELIGRLASELGTAMKGLDINQLSLEERMQERGW", "notes": "Pdx1 of S. aureus; Cloned into both pETM11/LIC (6xHis-TEV) and pETTRXA-1a/LIC (6xHis-TRX-TEV); Forms hexamers or dodecamers depending on the buffer; also called SaPdx1; source: E. coli Rosetta (DE3), purified (Ni-NTA, TEV cleavage, second Ni-NTA, SEC on Superdex 200); not shown: His6, N-terminal, cleaved"}, "B2": {"name": "Staphylococcus aureus Pdx2 (glutaminase subunit), wild type (enzyme, S. aureus, UniProt A5IQ73 1-186, looked up)", "chain": "MKIGVLALQGAVREHIRHIELSGHEGIAVKKVEQLEEIEGLILPGGESTTLRRLMNLYGFKEALQNSTLPMFGTCAGLIVLAQDIVGEEGYLNKLNITVQRNSFGRQVDSFETELDIKGIATDIEGVFIRAPHIEKVGQGVDILCKVNEKIVAVQQGKYLGVSFHPELTDDYRVTDYFINHIVKKA"}, "B3": {"name": "Staphylococcus aureus Pdx2 H165N (enzyme)", "chain": "B2 chain with H165N", "notes": "also called SaPdx2mut; SaPdx2_(H165N); source: E. coli Rosetta (DE3), purified (Ni-NTA, TEV cleavage, second Ni-NTA, SEC on Superdex 75)"}},
  "key": {"SaPdx1": {"molecular_target": "T1, SaPdx1 (Staphylococcus aureus, UniProt Q2G0Q1)", "T1 construct": "gene pdxS; synthetic gene, E. coli Rosetta (DE3), N-terminal 6xHis (TRX)-TEV tag cleaved; 297 residues printed; hexamer/dodecamer, dodecamer active; assayed without Pdx2, with ammonium sulfate", "T1 sequence (Q2G0Q1 1-295)": "B1 chain", "assay": "PLP Schiff base with Tris, absorbance […] nm", "type": "biochemical", "conditions": "with R5P (1 mM in standard mix) and 20 mM ammonium sulfate, 40 uM enzyme, 50 mM Tris-HCl pH 8, 150 mM NaCl, 37 °C; apparent; substrate inhibition at high G3P"}, "[1]": {"molecular_target": "T2, SaPLP synthase (SaPdx1 + SaPdx2) (Staphylococcus aureus, UniProt Q2G0Q1)", "T2 construct": "gene pdxS; wild-type complex of separately expressed subunits, E. coli Rosetta (DE3), N-terminal His tags TEV-cleaved; up to 24-mer, substoichiometric in Pdx2 at rest, 12:12 in catalysis; with Pyridoxal 5'-phosphate synthase subunit PdxT", "T2 sequence (Q2G0Q1 1-295)": "B1 chain", "T2 sequence (Q2G0Q0 1-186 partner)": "B2 chain", "assay": "PLP Schiff base with Tris, absorbance […] nm", "type": "biochemical", "conditions": "with R5P (1 mM in standard mix) and 20 mM glutamine, 40 uM Pdx1 and 40 uM Pdx2, 50 mM Tris-HCl pH 8, 150 mM NaCl, 37 °C; apparent; substrate inhibition at high G3P"}, "[2]": {"molecular_target": "the molecule itself", "assay": "SEC + other: dynamic light scattering; SaPdx1 purified in Tris-HCl buffer"}, "[3]": {"molecular_target": "B1", "assay": "cell-based or functional assay"}, "[4]": {"molecular_target": "B1", "assay": "SAXS; SEC-SAXS of the SaPdx1-SaPdx2 complexes (WT and mutant), 7 mg/ml, Superose 6 Increase 10/300; volume fractions of stoichiometries estimated with OLIGOMER from AF2-based models", "conditions": "both partners purified"}},
  "note": "Where a chain is given by its changes, count along the chain named. Names and notes keep the numbering of the source.",
  "data": [
    {"molecule": "O=C[C@H](O)COP(=O)(O)O", "note": "[glyceraldehyde 3-phosphate]", "values": [
      {"measurement": "Glyceraldehyde 3-phosphate / Ki", "setting": "SaPdx1", "result": "3.3 ± 0.9", "unit": "mM"},
      {"measurement": "Glyceraldehyde 3-phosphate / Ki", "setting": "[1]", "result": "1.9 ± 0.9", "unit": "mM"}
    ]},
    {"molecule": "B1", "values": [
      {"measurement": "stoichiometry N", "setting": "[2]", "result": 6}
    ]},
    {"molecule": "B2", "values": [
      {"measurement": "increase in the apparent kcat/KM ratio of PLP synthesis (G3P varied) for the SaPLP complex compared to SaPdx1 + ammonia", "setting": "[3]", "result": 5.7, "unit": "fold"},
      {"measurement": "increase in the apparent kcat/KM ratio of PLP synthesis (R5P varied) for the SaPLP complex compared to SaPdx1 + ammonia", "setting": "[3]", "result": "~21", "unit": "fold"}
    ]},
    {"molecule": "B3", "values": [
      {"measurement": "stoichiometry N", "setting": "[4]", "result": 1}
    ]}
  ]
}
